Laboratory results as given in US20230023093A1 (University of Pennsylvania, published 2023).

Tests used:
[1] = target: recombinant HIV-1 Env (subtype B; MN) protein (HIV-1 subtype B, MN, UniProt P05877 32-513); test: binding ELISA, serial dilutions of day 14 mouse sera
[2] = target: HIV-1 Env of the primary isolate Q23Env17 (pOpt-Env-A) (HIV-1 clade A, Q23Env17); test: cell-based or functional assay
[3] = target: HIV-1 Env of SF162S (clade B, Tier 1) on pseudotyped virus (HIV-1 clade B, SF162S); test: cell-based or functional assay
[4] = target: HIV-1 Env of Bal26 (clade B, Tier 1) on pseudotyped virus (HIV-1 clade B, Bal26); test: cell-based or functional assay
[5] = target: T1, HIV-1 Env of clade B strain SF162 on transfected 293T cells (HIV-1 clade B, SF162, UniProt P19550 32-847); test: binding of day 6 mouse sera to Env expressed in transfected 293T cells (FIG. 12)
T1 construct: whole, on cells

Binder | binding result [1] | plateau percent neutralization (TZM-Bl luciferase assay, sera 1:50) [2] | plateau percent neutralization (TZM-Bl luciferase assay, sera 1:50) [3] | plateau percent neutralization (TZM-Bl luciferase assay, sera 1:50) [4] | binding result [5]
CHIKV-Env-Fab (Fab, V domains shown) VH: QVQLVQSGSELKKPGASVKVSCKASGYTLTRYAMTWVRQAPGQGLEWMGWINTYTGNPTYVQGFTGRFVFSLDTSVSTAFLHITSLKAEDTAVYFCAREGGARGFDYWGQGTLVTVSS VL: QSVLTQPPSVSGAPGQRVTISCTGSSSNIGASHDVHWYQQLPGTAPTLLIYVNSNRPSGVPDRFSGSKSGTSASLAITGLQAEDEADYYCQSYDSNLSGSAVFGGGTKLTVLG | no binding |  |  |  | 
HIV-1 Env Fab (VRC01 based Fab generated from pHIV-1 Env Fab) (Fab, V domains shown) VH: QVQLVQSGGQMKKPGESMRISCRASGYEFIDCTLNWIRLAPGKRPEWMGWLKPRGGAVNYARPLQGRVTMTRDVYSDTAFLELRSLTVDDTAVYFCTRGKNCDYNWDFEHWGRGTPVIVSS VL: QIVLTQSPGTLSLSPGETAIISCRTSQYGSLAWYQQRPGQAPRLVIYSGSTRAAGIPDRFSGSRWGPDYNLTISNLESGDFGVYYCQQYEFFGQGTKVQVDI |  | ~60% | ~70% | ~62% | binds
